# Data taken from patent US20210032364A1 (NOMOCAN PHARMACEUTICALS, published 2021).
# T1: NMC-P1 peptide (human)
# T1 construct: Peptide corresponding to amino acids 1-15 of HDM2
# T1 peptide: MCNTNMSVPTDGAVT
# T2: NMC-P2 peptide (human)
# T2 construct: Peptide corresponding to amino acids 15-25 of HDM2
# T2 peptide: TTSQIPASEQE
# T3: NMC-P3 peptide (human)
# T3 peptide: CPVCRQPIQMIVLTYFP
# Assays:
# NMC-P1 peptide = molecular target: T1, NMC-P1 peptide; assay: peptide-ELISA, plate-bound peptide
# Protocol: (§1) Peptide-ELISA Methodology: 5 μg/ml of NMC-P1, NMC-P2 or NMC-P3 peptide antigen was dried onto a 96-well ELISA plate overnight. Plates were then blocked with 5% BSA in 1× phosphate-buffered saline (PBS) (100 μl/well) for 2 hours at room temperature. Microplate wells were then washed 5 times with 300 μl of ice cold lx PBS. […] After 2 hours, wells were washed 5 times with 300 μl ice-cold PBS/well and 100 μl secondary antibody (HRP-labeled Goat anti-Mouse F(ab′)2 H&L cross-adsorbed secondary antibody (HRP-GaM F(ab′)2), ThermoFisher, Cat. No. A24524) diluted 1:2500 to 1:5000 in PBS-1% BSA solution were added and the incubation continued at room temperature. After 1 hour, the wells were washed again 5 times with 200 μl of ice-cold PBS and 50 μL of the TMB Substrate Solution (1-StepTM Ultra TMB-ELISA, ThermoFisher, Cat. No. 34028) were added to each well and color was allowed to develop for 30 minutes at room temperature. The reaction was stopped by addition of 50 μL of stop solution (ThermoFisher, Cat. No. SSO4) to each well and absorbance of each well was read immediately for optical density (OD) at 450 nm.
# NMC-P2 peptide [1] = molecular target: T2, NMC-P2 peptide; assay: peptide-ELISA, plate-bound peptide
# Protocol: as §1
# NMC-P3 peptide [2] = molecular target: T3, NMC-P3 peptide; assay: competition peptide-ELISA, soluble peptide pre-incubated with the antibody
# Protocol: as §1
# NMC-P3 peptide [3] = molecular target: T3, NMC-P3 peptide; assay: peptide-ELISA, plate-bound peptide
# Protocol: as §1
# [4] = molecular target: T4, recombinant HDM2 protein (GST tagged, Abcam, Cat. No. ab188727) (human, UniProt Q00987 1-491); assay: immunoblot
# T4 construct: Bought protein, called full-length, about 83 kD with the tag; also called recombinant full-length HDM2 protein; recombinant HDM2-GST protein; not shown: GST tag at the N-terminus
# T4 sequence (Q00987 whole entry): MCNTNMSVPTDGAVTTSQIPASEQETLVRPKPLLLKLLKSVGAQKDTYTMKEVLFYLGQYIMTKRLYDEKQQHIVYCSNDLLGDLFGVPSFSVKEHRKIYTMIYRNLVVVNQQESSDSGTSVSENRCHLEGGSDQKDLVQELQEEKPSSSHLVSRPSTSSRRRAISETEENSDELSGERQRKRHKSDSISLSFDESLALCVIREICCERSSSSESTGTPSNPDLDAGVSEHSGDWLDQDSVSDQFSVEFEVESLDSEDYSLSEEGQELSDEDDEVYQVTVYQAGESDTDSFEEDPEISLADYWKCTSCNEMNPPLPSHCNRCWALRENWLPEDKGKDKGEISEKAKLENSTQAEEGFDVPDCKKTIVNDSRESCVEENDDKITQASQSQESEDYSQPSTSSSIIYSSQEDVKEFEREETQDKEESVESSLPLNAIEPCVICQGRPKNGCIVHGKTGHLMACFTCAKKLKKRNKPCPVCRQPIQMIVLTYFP
# Protocol: Western Blot: As for immunoblots, 1 μg/well of recombinant HDM2 protein (GST tagged, Abcam, Cat. No. ab188727) was separated on 8-16% sodium dodecyl sulfate (SDS) polyacrylamide gel and proteins were then transferred to polyvinylidene difluoride (PVDF) membrane. […] The membrane was then washed×3 times (10 minutes each) and incubated for 1 hour with corresponding HRP-conjugated secondary antibody (Goat anti-Mouse IgG (H&L), F(ab′)2 Frag Cross-adsorbed HRP (HRP-GaM F(ab′)2), ThermoFisher, Cat. No. A24524) diluted 1:5000 in 1% BSA-PBS. The membrane was then washed×3 times and incubated with Pierce ECL Plus Western Blotting Substrate (ThermoFisher, Cat. No. #32132) for 10 min before developing on a LICOR Scanner.
# NMC-P2 peptide [5] = molecular target: T2, NMC-P2 peptide; assay: peptide competition in cell-ELISA on intact MIA PaCa-2 cells
binding result (NMC-P1 peptide),binding result (NMC-P2 peptide [1]),binding result (NMC-P3 peptide [2]),binding result (NMC-P3 peptide [3]),binding result [4],binding result (NMC-P2 peptide [5]),Binder
binds,no binding,no binding (tested: 10 µl/ml),,,,"monoclonal antibody NMC-103 (antibody, IgG1, V domains shown) VH: EVQLQESGGGLVQPGGSLRLSCTTSGFTFTHYYMSWVRQPPGKALEWLGFIRNKAKGYTAEYSASVKGRFTISRDNSQSILYLQMNTLRPEDSATYYCARDIGDNWGQGTLVTVSS VL: DIVMTQAAFSNPVTLGTSASISCRSSKNLLHSNGITYLYWYLQRPGQSPQLLISRVSNLASGVPNRFSGSESGTDFTLRISRVEAEDVGVYFCAQLLELPYTFGGGTKLEIK"
no binding,binds,,no binding,,,"monoclonal antibody NMC-204 (antibody, IgG3, V domains shown) VH: EVQLQESGSVLVRPGASVKLSCKASGDTLSGSWMHWAMQRPGQGLEWIGEIHLNRGTTNYNEKFKGKATVTVDTSSSTAYVDLSSLTSEDSAVYYCARSPGFAYWGQGTLVTVSA VL: GIVMTQAAPSVPVTPGESVSISCRSSKSLLHSNGNSYLYWFLQRPGQSPQLLIYRMSNLASGVPDRFSGSGSGTAFTLRITRVEAEDVGVYYCMQHLEYPFTFGSGTKLEIK"
,,,binds,binds,no binding,"monoclonal antibody NMC-303 (antibody, V domains shown) VH: QVQLQQPGAELVKPGASVKLSCKASGYTFTSYYMYWVKQRPGQGLEWIGGINPRNGGTNFNEKFKNKATLTADKSSTTAYMQLSSLTSEDSAVYYCTRSGYYAMDYWGQGTSVTVSS VL: DIQMTQTTSSLSASLGDRVTISCRASQDISNFLNWYQQKPDGTVKLLIYYTSRLHSGVPSRFSGSGSGTDYSLTISNLEQEDIATYFCQQGNTLPRTFGGGTKLEIK"
